Test results from paper PMC2408645.
Like-named read-outs stand apart in the source and are kept apart here.

Experiments:
Test in all cases: two-hybrid
[1] = target: KpsC (E. coli K1 (strain EV36)) (UniProt P42217)
[2] = target: KpsC (E. coli K1 (strain EV36)) (UniProt P42217); remark: listed apart in the source
[3] = target: NeuS (E. coli K1 (strain EV36))
[4] = target: NeuS (E. coli K1 (strain EV36)); remark: listed apart in the source

Substance	beta-galactosidase activity, early [1]	beta-galactosidase activity, early [2]	beta-galactosidase activity, early [3]	beta-galactosidase activity, early [4]	beta-galactosidase activity, late [1]	beta-galactosidase activity, late [4]	beta-galactosidase activity, late [2]	beta-galactosidase activity, late [3]
NeuS (enzyme)	18 Miller units	15 Miller units	–	–	–	–	–	–
NeuE (natural protein)	–	–	17 Miller units	16 Miller units	–	–	–	–
KpsE (natural protein)	65 Miller units	230 Miller units	–	140 Miller units	120 Miller units	1050 Miller units	1170 Miller units	–
KpsC (from UniProt P42217 1-675) (natural protein)	220 Miller units	200 Miller units	560 Miller units	420 Miller units	540 Miller units	5540 Miller units	760 Miller units	4700 Miller units
